This is an account of results in article PMC7170532.

Usually stoichiometry N stands for a count of units in the complex or per binding partner.

The assay concerns the target latent myostatin (human) (UniProt O14793). Kind of assay: SEC-MALS; SRT SEC-500 column, 20 mM phosphate, 200 mM NaCl pH 6.8; latent myostatin alone; 94 kDa observed, 82 kDa calculated.

Chain of latent myostatin (O14793 whole entry, looked up): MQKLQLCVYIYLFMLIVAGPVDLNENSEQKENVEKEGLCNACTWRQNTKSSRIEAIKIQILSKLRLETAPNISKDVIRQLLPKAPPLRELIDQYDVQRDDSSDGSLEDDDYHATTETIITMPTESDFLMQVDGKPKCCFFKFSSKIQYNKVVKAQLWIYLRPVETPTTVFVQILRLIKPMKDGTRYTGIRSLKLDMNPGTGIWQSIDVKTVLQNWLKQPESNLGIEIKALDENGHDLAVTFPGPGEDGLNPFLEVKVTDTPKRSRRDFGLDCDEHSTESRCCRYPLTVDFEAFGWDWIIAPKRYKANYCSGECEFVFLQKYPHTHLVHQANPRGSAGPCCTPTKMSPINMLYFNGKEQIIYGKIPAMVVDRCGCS

Turning to “latent myostatin (from UniProt O14793 267-375) (complex)”, the stoichiometry N is 2.
